Article PMC3618350 (G3: Genes|Genomes|Genetics, 2013)
Like-named read-outs stand apart in the source and are kept apart here.

T1: Rev1 (S. cerevisiae, UniProt P12689 1-985)
T1 sequence (looked up): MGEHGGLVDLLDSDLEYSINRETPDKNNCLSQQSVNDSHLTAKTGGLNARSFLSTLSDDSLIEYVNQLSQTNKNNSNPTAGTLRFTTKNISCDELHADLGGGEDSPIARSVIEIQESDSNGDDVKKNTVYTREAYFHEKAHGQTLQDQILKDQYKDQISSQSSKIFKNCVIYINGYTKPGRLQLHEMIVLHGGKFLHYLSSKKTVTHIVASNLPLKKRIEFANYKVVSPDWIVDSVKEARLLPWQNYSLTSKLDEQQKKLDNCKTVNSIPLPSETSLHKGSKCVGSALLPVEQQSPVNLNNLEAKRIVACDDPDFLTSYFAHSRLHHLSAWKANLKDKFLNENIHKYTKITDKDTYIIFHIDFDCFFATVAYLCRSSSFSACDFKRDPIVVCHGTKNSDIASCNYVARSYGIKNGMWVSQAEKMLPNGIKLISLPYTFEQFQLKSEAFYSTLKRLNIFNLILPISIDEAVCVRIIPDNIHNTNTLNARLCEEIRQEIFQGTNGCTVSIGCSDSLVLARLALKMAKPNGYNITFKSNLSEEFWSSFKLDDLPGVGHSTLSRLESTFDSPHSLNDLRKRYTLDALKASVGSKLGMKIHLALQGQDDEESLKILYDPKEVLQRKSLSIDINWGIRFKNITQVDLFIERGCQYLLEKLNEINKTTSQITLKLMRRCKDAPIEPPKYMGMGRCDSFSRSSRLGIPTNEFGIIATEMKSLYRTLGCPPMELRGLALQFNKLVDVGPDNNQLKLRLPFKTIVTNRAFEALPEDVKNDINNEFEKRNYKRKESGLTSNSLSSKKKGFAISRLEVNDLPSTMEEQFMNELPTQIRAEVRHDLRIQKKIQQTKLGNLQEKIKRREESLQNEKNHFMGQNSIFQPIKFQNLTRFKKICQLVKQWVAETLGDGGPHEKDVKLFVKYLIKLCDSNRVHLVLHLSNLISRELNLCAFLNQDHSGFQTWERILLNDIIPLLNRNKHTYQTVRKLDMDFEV

T2: Rev7 (S. cerevisiae, UniProt P38927 1-245)
T2 sequence (looked up): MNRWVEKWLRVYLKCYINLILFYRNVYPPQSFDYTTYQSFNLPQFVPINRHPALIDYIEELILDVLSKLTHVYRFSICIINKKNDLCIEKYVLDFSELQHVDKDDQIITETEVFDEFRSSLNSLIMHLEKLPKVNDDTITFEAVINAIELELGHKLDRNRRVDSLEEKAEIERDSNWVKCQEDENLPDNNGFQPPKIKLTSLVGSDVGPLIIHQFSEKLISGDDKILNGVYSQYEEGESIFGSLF


Tests used:
Experiment in all cases: two-hybrid
Rev1 = molecular target: T1, Rev1
Rev7 [1] = molecular target: T2, Rev7
Rev7 [2] = molecular target: T2, Rev7; remark: listed apart in the source

| fold change in reporter activity over the highest negative control (Rev1) [fold] | fold change in reporter activity over the highest negative control (Rev7 [1]) [fold] | Binder | further results |
| --- | --- | --- | --- |
| 4.15 |  | Spo11 (natural protein, S. cerevisiae, UniProt P23179 1-398, looked up) MALEGLRKKYKTRQELVKALTPKRRSIHLNSNGHSNGTPCSNADVLAHIKHFLSLAANSLEQHQQPISIVFQNKKKKGDTSSPDIHTTLDFPLNGPHLCTHQFKLKRCAILLNLLKVVMEKLPLGKNTTVRDIFYSNVELFQRQANVVQWLDVIRFNFKLSPRKSLNIIPAQKGLVYSPFPIDIYDNILTCENEPKMQKQTIFPGKPCLIPFFQDDAVIKLGTTSMCNIVIVEKEAVFTKLVNNYHKLSTNTMLITGKGFPDFLTRLFLKKLEQYCSKLISDCSIFTDADPYGISIALNYTHSNERNAYICTMANYKGIRITQVLAQNNEVHNKSIQLLSLNQRDYSLAKNLIASLTANSWDIATSPLKNVIIECQREIFFQKKAEMNEIDARIFEYK |  |
|  | 2 | Rad57 (natural protein, S. cerevisiae, UniProt P25301 1-460, looked up) MPRALSIKFDNTYMDLYDELPESKLLYDEEFSYLLDAVRQNGVCVVDFLTLTPKELARLIQRSINEVFRFQQLLVHEYNEKYLEICEKNSISPDNGPECFTTADVAMDELLGGGIFTHGITEIFGESSTGKSQLLMQLALSVQLSEPAGGLGGKCVYITTEGDLPTQRLESMLSSRPAYEKLGITQSNIFTVSCNDLINQEHIINVQLPILLERSKGSIKLVIIDSISHHLRVELQNKSFRESQENKNYLDRMAEKLQILAHDYSLSVVVANQVGDKPLANSPVAHRTYVTDYDYQLGWLVGWKNSTILYRQMNSLLGASSNNDEILSDDEDYMLIERVMSTVNDRNYDFFSKKKPPIIENKTVERNSSSPISRQSKKRKFDYRVPNLGLTWSNHVSTRILLQKSFKASTIIQRGEAHLYKGGDSASFWQVKRTMKVVYSTFAKPGQIAYQITKRGIETA |  |
|  |  | Rec114 (natural protein, S. cerevisiae, UniProt P32841 1-428, looked up) MYEYCSVVIKKYSKYTIPSFAPNGFQSMLEPPQIDKWQHLSANCTLQFRVLLMDSRQILINVVLNNSTLLENIRLPLGDNQDLIQFSCKSPIISCKYISEEFGPRMLRRFQMNLPNDVEFNRTVVSLKNLNFVLRTARTSIAQSTITSQVQGNNNGTKVCFTEGPKVSSYTNPNTQFQTQNMIMDFSQRYQEESERESNNRSNITLPHDSIQIAQQIWPNTDLNVVQSSQDLNTPMATQTVLGRPESLIVQPLEVSQSPPNTTNCLPNAENKKKKVDTTSDFTSRKEIALCKTGLLETIHIPKERESQMQSVTGLDATPTIIWSPGKDNTAKKNTSNKKNIDDKLTNPQKSGNTHTPDRNKEVLPNGTLNETRKEASPSEGLTIRVKNVNRNASRKISKRLIKEKLKDEEFMKWVNKVETVLNKMFEK | fold change in reporter activity over the highest negative control (Rev7 [2]): 6.27 fold |
|  | 1.49 | Rad54 (natural protein, S. cerevisiae, UniProt P32863 1-898, looked up) MARRRLPDRPPNGIGAGERPRLVPRPINVQDSVNRLTKPFRVPYKNTHIPPAAGRIATGSDNIVGGRSLRKRSATVCYSGLDINADEAEYNSQDISFSQLTKRRKDALSAQRLAKDPTRLSHIQYTLRRSFTVPIKGYVQRHSLPLTLGMKKKITPEPRPLHDPTDEFAIVLYDPSVDGEMIVHDTSMDNKEEESKKMIKSTQEKDNINKEKNSQEERPTQRIGRHPALMTNGVRNKPLRELLGDSENSAENKKKFASVPVVIDPKLAKILRPHQVEGVRFLYRCVTGLVMKDYLEAEAFNTSSEDPLKSDEKALTESQKTEQNNRGAYGCIMADEMGLGKTLQCIALMWTLLRQGPQGKRLIDKCIIVCPSSLVNNWANELIKWLGPNTLTPLAVDGKKSSMGGGNTTVSQAIHAWAQAQGRNIVKPVLIISYETLRRNVDQLKNCNVGLMLADEGHRLKNGDSLTFTALDSISCPRRVILSGTPIQNDLSEYFALLSFSNPGLLGSRAEFRKNFENPILRGRDADATDKEITKGEAQLQKLSTIVSKFIIRRTNDILAKYLPCKYEHVIFVNLKPLQNELYNKLIKSREVKKVVKGVGGSQPLRAIGILKKLCNHPNLLNFEDEFDDEDDLELPDDYNMPGSKARDVQTKYSAKFSILERFLHKIKTESDDKIVLISNYTQTLDLIEKMCRYKHYSAVRLDGTMSINKRQKLVDRFNDPEGQEFIFLLSSKAGGCGINLIGANRLILMDPDWNPAADQQALARVWRDGQKKDCFIYRFISTGTIEEKIFQRQSMKMSLSSCVVDAKEDVERLFSSDNLRQLFQKNENTICETHETYHCKRCNAQGKQLKRAPAMLYGDATTWNHLNHDALEKTNDHLLKNEHHYNDISFAFQYISH |  |
| 3.01 |  | Mei4 (natural protein, S. cerevisiae, UniProt P29467 1-408, looked up) MSRGKLEDMEQKETSEVDWIICFALIQSRNPTLWKRALSRKKGDVEDVGALKSEKNLKINPRENSKHIYKWVAPFENGFLNNKSLFAHLEPIYNFLCQNKYKSFEDAVGLKELQSFSKDVSTADINNWFLPRYKILLKILSLKTKEIDFRGLSQVFQTLQILLVSHYSHRIDSDSSFKRTLIDVHVFNFIAKFLFNRILLKKNQNDPKWLQNFYDQGDGKHLCDKVDYKRLCSLHFTLIYSIINIQLIKIKTNQTFEPQILKYVSVLKLIEHILIIIESLIHVLIRFVSKHKLICINRKKAYCRVYLERELSLKKTYLKNFYSVISGVPEKELGGLLKILKIVILSLLETFESIEWQHLKPFLEKFPAHEISLQKKRKYIQAALLITAERNLIARFRLSRWFNETENI |  |
